Data as given in IntAct's records for PubMed 25281559.

B1: Casein kinase I homolog HRR25 (Saccharomyces cerevisiae), P29295 (parent)
chain: MDLRVGRKFRIGRKIGSGSFGDIYHGTNLISGEEVAIKLESIRSRHPQLDYESRVYRYLSGGVGIPFIRWFGREGEYNAMVIDLLGPSLEDLFNYCHRRFSFKTVIMLALQMFCRIQYIHGRSFIHRDIKPDNFLMGVGRRGSTVHVIDFGLSKKYRDFNTHRHIPYRENKSLTGTARYASVNTHLGIEQSRRDDLESLGYVLIYFCKGSLPWQGLKATTKKQKYDRIMEKKLNVSVETLCSGLPLEFQEYMAYCKNLKFDEKPDYLFLARLFKDLSIKLEYHNDHLFDWTMLRYTKAMVEKQRDLLIEKGDLNANSNAASASNSTDNKSETFNKIKLLAMKKFPTHFHYYKNEDKHNPSPEEIKQQTILNNNAASSLPEELLNALDKGMENLRQQQPQQQVQSSQPQPQPQQLQQQPNGQRPNYYPEPLLQQQQRDSQEQQQQVPMATTRATQYPPQINSNNFNTNQASVPPQMRSNPQQPPQDKPAGQSIWL
partner: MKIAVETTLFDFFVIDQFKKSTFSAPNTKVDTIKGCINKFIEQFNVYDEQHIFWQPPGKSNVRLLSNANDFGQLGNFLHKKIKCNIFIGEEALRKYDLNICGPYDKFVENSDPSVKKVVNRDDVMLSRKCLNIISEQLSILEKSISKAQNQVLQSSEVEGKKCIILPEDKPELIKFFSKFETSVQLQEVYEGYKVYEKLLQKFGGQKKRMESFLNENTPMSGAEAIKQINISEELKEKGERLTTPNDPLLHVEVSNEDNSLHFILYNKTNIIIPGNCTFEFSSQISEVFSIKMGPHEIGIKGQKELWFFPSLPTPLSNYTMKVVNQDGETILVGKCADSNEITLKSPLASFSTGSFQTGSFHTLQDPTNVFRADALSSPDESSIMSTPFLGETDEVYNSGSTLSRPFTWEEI

Variants of: B1
Settings: with atg34_yeast ATG34, Q12292

Row | effect of a mutation on the interaction | Variant
1 | disrupting interaction | K38A
